{"source": "IntAct's records for PubMed 17170699", "parents": {"B1": {"name": "Protein disulfide-isomerase A3 (Homo sapiens), P30101 (parent)", "chain": "MRLRRLALFPGVALLLAAARLAAASDVLELTDDNFESRISDTGSAGLMLVEFFAPWCGHCKRLAPEYEAAATRLKGIVPLAKVDCTANTNTCNKYGVSGYPTLKIFRDGEEAGAYDGPRTADGIVSHLKKQAGPASVPLRTEEEFKKFISDKDASIVGFFDDSFSEAHSEFLKAASNLRDNYRFAHTNVESLVNEYDDNGEGIILFRPSHLTNKFEDKTVAYTEQKMTSGKIKKFIQENIFGICPHMTEDNKDLIQGKDLLIAYYDVDYEKNAKGSNYWRNRVMMVAKKFLDAGHKLNFAVASRKTFSHELSDFGLESTAGEIPVVAIRTAKGEKFVMQEEFSRDGKALERFLQDYFDGNLKRYLKSEPIPESNDGPVKVVVAENFDEIVNNENKDVLIEFYAPWCGHCKNLEPKYKELGEKLSKDPNIVIAKMDATANDVPSPYEVRGFPTIYFSPANKKLNPKKYEGGRELSDFISYLQREATNPPVIQEEKPKKKKKAQEDL", "partner": "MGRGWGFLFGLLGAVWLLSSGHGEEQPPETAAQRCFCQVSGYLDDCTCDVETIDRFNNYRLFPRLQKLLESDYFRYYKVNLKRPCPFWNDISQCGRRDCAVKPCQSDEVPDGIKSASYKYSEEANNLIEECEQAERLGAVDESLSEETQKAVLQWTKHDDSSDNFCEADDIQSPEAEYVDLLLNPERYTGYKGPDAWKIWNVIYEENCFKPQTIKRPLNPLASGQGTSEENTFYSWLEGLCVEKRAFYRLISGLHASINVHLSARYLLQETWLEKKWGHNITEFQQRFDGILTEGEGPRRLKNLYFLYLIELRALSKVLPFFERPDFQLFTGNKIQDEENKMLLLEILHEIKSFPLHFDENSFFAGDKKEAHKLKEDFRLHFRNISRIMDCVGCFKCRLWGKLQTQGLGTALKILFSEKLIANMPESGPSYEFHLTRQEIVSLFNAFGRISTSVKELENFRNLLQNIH"}}, "data": [{"variants_of": "B1", "conditions": "with ero1a_human ERO1A", "values": [{"variant": "C409A", "effect of a mutation on the interaction": "decreasing interaction"}]}]}
